Biological target: VEGF165 (vascular endothelial growth factor) (UniProt P15692-4 27-191)
Experiment: impedance spectroscopy on aptamer-grafted interdigitated sensor; 5 and 50 pM VEGF in PBS; 10 kHz impedance 50.32 (water), 28.90 (5 pM), 12.81 kOhm (50 pM); proteins diluted in PBS (5 and 50 pM), about 25 °C, impedance 2.5-100 kHz; aptamer grafted at 50 nM, pH 8, 24 h; water pH 7 as control
Settings: protein: commercial; chain copies: 2

Chain of VEGF165 (vascular endothelial growth factor) (P15692 other isoform, or with tags, fused parts or gaps): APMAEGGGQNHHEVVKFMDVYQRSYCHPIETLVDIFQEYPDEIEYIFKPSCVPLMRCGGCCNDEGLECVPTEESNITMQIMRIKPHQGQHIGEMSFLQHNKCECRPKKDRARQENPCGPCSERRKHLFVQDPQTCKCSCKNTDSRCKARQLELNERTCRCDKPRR

B1: VEGF165 DNA aptamer (ssDNA)
DNA: ATACCAGTCTATTCAATTGGGCCCGTCCGTATGGTGGGTGTGCTGGCCAGATAGTATGTGCAATCA
modifications: grafted on NHS-functionalized mercapto monolayer; attachment group on the DNA not stated
- binding result: binds
